In patent US20220195054A1 (BERGEN TEKNOLOGIOVERF RING, published 2022):
Like-named read-outs stand apart in the source and are kept apart here.

Tests used:
[1] = biological target: T1, human Axl receptor on cells (MDA-MB-231, HeLa, LX2, Axl-positive cells) (human, UniProt P30530 26-894); assay: flow cytometry on MDA-MB-231 cells, APC-conjugated anti-human IgG F(ab')2 detection
T1 construct: Endogenous receptor of human tumour cell lines

[2] = biological target: T2, recombinant human Axl-Fc chimera (rhAxl-Fc; R&D Systems, Cat. no. 154-AL) (human, UniProt P30530 26-451); assay: SPR (Biacore 3000, 25 C), rhAxl-Fc immobilised (190 RU), antibody as analyte, koff/kon
T2 construct: Bought construct; also called rhAxi-Fc; Hu-Axl-Fc; Fc part of the bought chimera not given

[3] = biological target: T2, recombinant human Axl-Fc chimera …; assay: SPR two-injection competition on immobilised Axl-Fc; first injection
[4] = biological target: T1, human Axl receptor on cells …; assay: cell-based or functional assay
[5] = biological target: T2, recombinant human Axl-Fc chimera …; assay: SPR (Biacore 3000, 25 C), rhAxl-Fc immobilised; ln2/koff
Method: (§1) The precise kinetic analysis was performed using BIA evaluation software and curve fitting according to 1:1 Langmuir binding model.

[6] = biological target: T1, human Axl receptor on cells …; assay: flow cytometry titration on MDA-MB-231 cells, Kd of the fitted curve, the axis of the fitted curves is Conc. (nM) [table under the graph]
Method: (§2) The cells were collected by centrifugation at 200 g for 5 min. The antibody was diluted for total concentration in PBS containing 0.2% bovine serum albumin (BSA). Cell staining was performed using 200 μL of cell suspension comprising 200 000 cells for 30 min at room temperature. […] After two washing steps with PBS/0.2% BSA, the cells were resuspended in 200 μL PBS and kept on ice before analysis on Fortessa flow cytometer (BD Biosciences).

[7] = biological target: T2, recombinant human Axl-Fc chimera …; assay: SPR (Biacore 3000, 25 C), rhAxl-Fc immobilised (190 RU), antibody as analyte, 1:1 Langmuir
Method: as §1

[8] = biological target: T1, human Axl receptor on cells …; assay: flow cytometry on MDA-MB-231 cells, APC-conjugated anti-human IgG F(ab')2 detection; remark: listed apart in the source
Method: as §2

B1: chimeric monoclonal antibody 10G5 (mouse variable/human constant IgG1) (antibody, V domains shown)
VH: QVQLQQSGAELVRPGASVKLSCKASGYSFTDFYINWVRQRPGQGLEWIARIFPGGDNTYYNEKFKGKATLTAEESSSTAYIQLSSLTSEDSAVYFCARRGLYYAMDYWGQGISVTVSS
VL: DVLMTQTPLSLPVSLGDQASISCRSSQSLVHSNGIPYLHWYLQKPGQSPKLLIYRVSNRFSGVPDRFSGSGSGTDFTLKISRVEAEDLGVYFCSQGTHVPPTFGGGTKLEIK
notes: also called c10G5; C10G5
- EC50 (read off the curve) [1]: ~200 pM
- Kd [2]: 103 pM
- 1st Response [3]: ~170
- EC50 (pM), killing of MDA-MB-231 cells by antibody coupled to Saporin (FabFc-ZAP), XTT/PMS viability after 72 hrs [4]: 5.71 pM
- Half-life (t1/2) [5]: 1.14 h
- Kd [6]: 92.2 pM
- koff [7]: 0.000169 s⁻¹
- kon [7]: 1.64e+06 M⁻¹ s⁻¹
- EC50 (read off the curve) [8]: ~100 pM
